± gives the uncertainty stated by the source.
B1: Zinc finger MYM-type protein 6, residues 427 to 504; numbered along this chain, O95789 (parent)
chain: KLKCQHCNHLFATKPELLFYKGKMFLFCGKNCSDEYKKKNKVVAMCDYCKLQKIIKETVRFSGVDKPFCSEVCKFLSA

Variants of: B1
Assay: abundance fitness (aPCA) (normalised: wild type 0, dead -1); higher = more abundant; growth selection in yeast, the domain comes from the species named
Settings: Homo sapiens

Abundance fitness of substitutions, site by site:
S70: R -0.925 ± 0.14, D -0.498 ± 0.19, P -0.563 ± 0.48, M -0.482 ± 0.21, V -1.05 ± 0.16, G -0.502 ± 0.098, W -1.14 ± 0.27, L -0.162 ± 0.2, Q -0.578 ± 0.17, H -0.248 ± 0.18, Y -0.673 ± 0.48, A -0.651 ± 0.12, C -0.425 ± 0.2, K -0.635 ± 0.39
G63: V -0.713 ± 0.2, A -0.495 ± 0.16, P -0.201 ± 0.31, W -0.486 ± 0.18, T -0.226 ± 0.16, Q -0.191 ± 0.18, S -0.53 ± 0.23, L -0.315 ± 0.097, C -0.709 ± 0.23, D 0.098 ± 0.14, E -0.502 ± 0.17, F -0.179 ± 0.47, R -0.554 ± 0.13
D65: N -0.141 ± 0.34, S -0.188 ± 0.1, M 0.006 ± 0.13, G -0.488 ± 0.1, L -0.105 ± 0.099, R -0.908 ± 0.23, E 0.142 ± 0.11, P -0.339 ± 0.21, F -0.598 ± 0.2, V -0.232 ± 0.1, T -0.208 ± 0.36, A -0.226 ± 0.12, I -0.666 ± 0.3, C -0.284 ± 0.4
A78: E -0.067 ± 0.31, R -0.142 ± 0.15, M 0.774 ± 0.16, N -0.301 ± 0.14, G 0.022 ± 0.18, W -0.284 ± 0.42, S -0.11 ± 0.14, V -0.292 ± 0.12, C -0.897 ± 0.43, D 0.891 ± 0.22
L76: R 0.209 ± 0.073, V -0.581 ± 0.098, H 0.095 ± 0.32, Q 0.603 ± 0.13, P -0.5 ± 0.35, W -0.174 ± 0.11, M 0.759 ± 0.09, Y -0.189 ± 0.33, G -0.052 ± 0.073, C 0.183 ± 0.18, T -0.109 ± 0.28
C73: V -0.728 ± 0.26, P -1.51 ± 0.47, E -0.885 ± 0.18, G -0.638 ± 0.12, M -0.142 ± 0.15, D -0.505 ± 0.37, R -0.863 ± 0.15, I -0.753 ± 0.29, Q -0.944 ± 0.32, W -0.751 ± 0.21, A -0.627 ± 0.12
C69: P -0.391 ± 0.18, L -0.954 ± 0.24, K -0.637 ± 0.18, Q -0.404 ± 0.19, V -1.03 ± 0.28, M -0.443 ± 0.16, A -1.23 ± 0.28, G -0.731 ± 0.097, S -0.539 ± 0.15, W -0.71 ± 0.16, T -0.902 ± 0.24, R -0.602 ± 0.097, E -0.286 ± 0.15
F68: L -0.288 ± 0.13, R -0.516 ± 0.11, D -0.35 ± 0.17, M 0.263 ± 0.14, S -0.842 ± 0.17, Q -0.341 ± 0.17, E -0.278 ± 0.1, A -0.036 ± 0.12, P -0.113 ± 0.14, C 0.204 ± 0.15, K -0.476 ± 0.21, Y 0.439 ± 0.39, W -0.651 ± 0.12, T -0.555 ± 0.35
P67: V 0.27 ± 0.12, L -0.354 ± 0.14, M 0.952 ± 0.092, A -0.51 ± 0.22, S 0.122 ± 0.12, Q 0.296 ± 0.15, R 0.042 ± 0.081, K 0.486 ± 0.17, W -0.088 ± 0.19, E -0.562 ± 0.23, G 0.07 ± 0.1, T -0.349 ± 0.28
F75: K 0.533 ± 0.1, D 0.671 ± 0.11, Q 0.096 ± 0.28, G 0.484 ± 0.061, C 0.677 ± 0.09, Y -0.699 ± 0.42, L 0.365 ± 0.072, N 0.487 ± 0.24, V 0.256 ± 0.063, I 0.02 ± 0.22, A 0.488 ± 0.079, P 0.039 ± 0.12, S 0.48 ± 0.14, T 0.557 ± 0.096, R 0.499 ± 0.063
K66: W -0.845 ± 0.28, H -0.091 ± 0.19, M 0.325 ± 0.15, Q -0.348 ± 0.23, V 0.542 ± 0.081, C -0.635 ± 0.33, A -0.292 ± 0.23, L -0.889 ± 0.4, Y 0.215 ± 0.33, T -0.199 ± 0.33, S -0.669 ± 0.31, G 0.144 ± 0.11, E 0.161 ± 0.16
S77: Y -0.09 ± 0.28, W -0.106 ± 0.093, D -0.14 ± 0.17, R -0.394 ± 0.09, N -0.434 ± 0.25, G 0.139 ± 0.079, L -1.36 ± 0.4, T -1.01 ± 0.37, A -0.129 ± 0.097, Q -0.303 ± 0.24, E -0.615 ± 0.22, V -0.857 ± 0.24, C -0.104 ± 0.22
K74: F -0.594 ± 0.49, Q -0.123 ± 0.13, G -0.427 ± 0.13, T -0.017 ± 0.3, V -0.674 ± 0.14, N -0.996 ± 0.23, A -0.025 ± 0.12, S -0.705 ± 0.2, E -0.39 ± 0.16, R -0.298 ± 0.12, M 0.544 ± 0.11, L -0.594 ± 0.15
E71: V -0.386 ± 0.11, N 0.491 ± 0.44

Reference: the Human Domainome abundance scans (Beltran et al. 2025)
